Results from doi:10.1101/459164.

Assays:
[1] = target: MT145 SOSIP.664 trimer (chimpanzee SIVcpzPtt MT145 Env, wild-type V2) (SIVcpzPtt (chimpanzee SIV), isolate MT145)
[2] = target: MT145K SOSIP.664 trimer (chimpanzee SIVcpzPtt MT145 Env, Q171K) (SIVcpzPtt (chimpanzee SIV), isolate MT145); assay: cryo-EM structure

MT145 SOSIP.664 trimer (chimpanzee SIVcpzPtt MT145 Env, wild-type V2) (complex)
stoichiometry N [1]: 3

MT145K SOSIP.664 trimer (chimpanzee SIVcpzPtt MT145 Env, Q171K) (complex)
stoichiometry N [2]: 3
